# Publication PMC5970976
# Biological target: CHIKV virus-like particles (VLPs, strain 37997) (chikungunya virus (strain 37997))
# Test: SPR
# Chain of CHIKV virus-like particles (VLPs, strain 37997) (chikungunya virus (strain 37997)) (Q5XXP3 326-748 limits assumed, chain 1 of 2): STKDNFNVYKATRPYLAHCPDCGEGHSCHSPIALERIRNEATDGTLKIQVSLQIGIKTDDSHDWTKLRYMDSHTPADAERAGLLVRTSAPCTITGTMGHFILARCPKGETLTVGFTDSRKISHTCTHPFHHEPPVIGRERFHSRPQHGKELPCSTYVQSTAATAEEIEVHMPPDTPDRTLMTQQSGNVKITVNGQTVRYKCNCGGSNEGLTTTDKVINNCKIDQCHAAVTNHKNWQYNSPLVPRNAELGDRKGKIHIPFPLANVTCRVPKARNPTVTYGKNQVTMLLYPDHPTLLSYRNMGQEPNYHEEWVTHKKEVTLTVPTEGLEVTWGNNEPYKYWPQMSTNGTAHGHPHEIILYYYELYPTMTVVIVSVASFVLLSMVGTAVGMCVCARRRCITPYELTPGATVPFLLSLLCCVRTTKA
# Chain of CHIKV virus-like particles (VLPs, strain 37997) (chikungunya virus (strain 37997)) (Q5XXP3 810-1248 limits assumed, chain 2 of 2): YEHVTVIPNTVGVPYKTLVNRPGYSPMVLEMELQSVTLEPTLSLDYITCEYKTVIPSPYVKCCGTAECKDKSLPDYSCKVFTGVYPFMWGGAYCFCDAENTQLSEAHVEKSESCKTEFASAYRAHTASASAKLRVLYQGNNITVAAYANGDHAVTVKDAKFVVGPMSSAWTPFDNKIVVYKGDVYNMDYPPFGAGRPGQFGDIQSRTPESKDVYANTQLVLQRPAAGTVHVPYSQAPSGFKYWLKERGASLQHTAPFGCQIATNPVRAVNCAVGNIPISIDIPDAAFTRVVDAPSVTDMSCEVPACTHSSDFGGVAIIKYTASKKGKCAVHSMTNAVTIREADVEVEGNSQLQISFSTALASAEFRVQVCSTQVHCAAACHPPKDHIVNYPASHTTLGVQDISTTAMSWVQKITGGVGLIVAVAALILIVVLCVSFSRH
substance,measurement,value
Mxra8 cleaved from the IgG backbone (recombinant Mxra8 from Mxra8-HRV-Fc) (from UniProt Q9DBV4 22-336) (domain or fragment),Kd,200 nM
